Sequences and labels used below:
B1: CPEB3 Ribozyme (parent)
chain: GGGGGCCACAGCAGAAGCGUUCACGUCGCGGCCCCUGUCAGAUUCUGGUGAAUCUGCGAAUUCUGCUGU

In this data set the parent is B1. Briefly: self-cleavage, relative activity (ratio to wild type); higher = more cleavage; co-transcriptional.
As to C22G C27G, the self-cleavage is 0.16.

Regarding U21G C39U, the self-cleavage stood at 0.61.

Take U21G C39A: the self-cleavage amounted to 0.396.

As to U20G C32G, the self-cleavage was 0.179.

Consider U21C U46C, for which the self-cleavage stood at 0.89.

For C22A A51C, the self-cleavage was 0.176.

As for C22A G68C, the self-cleavage turned out to be 0.27.

As for C22A G68U, the self-cleavage amounted to 0.264.

For the variant C22A G68A, the self-cleavage is 0.247.

Take U21C C27G: the self-cleavage came to 0.209.

For the variant U21C A23G, the self-cleavage is 0.76.

On to A23C C66G, for which the self-cleavage stood at 0.81.

In the case of C22A G50A, the self-cleavage amounted to 0.24.

As to U20G U64G, the self-cleavage was 0.117.

As to U20G U64A, the self-cleavage is 0.152.

Take C22G A40C: the self-cleavage came to 0.23.

In the case of C22G A40G, the self-cleavage turned out to be 0.204.

Take C22G A40U: the self-cleavage is 0.105.

U21G G25A: the self-cleavage worked out at 0.284.

In the case of C22G U44G, the self-cleavage came out at 0.16.

As for C22U C29A, the self-cleavage is 0.172.

For U21G C35U, the self-cleavage stood at 0.361.

Regarding U21G C35G, the self-cleavage stood at 0.225.

Take U21A C66U: the self-cleavage was found to be 0.985.

As for C22A A23G, the self-cleavage came to 0.198.

C22A A23U: the self-cleavage turned out to be 0.281.

Take U21A U61C: the self-cleavage is 0.728.

On to U21A C35G, for which the self-cleavage was 0.198.

U21A A42U: the self-cleavage was found to be 0.941.

As for U20G C22U, the self-cleavage was found to be 0.141.

For the variant U21C U61A, the self-cleavage was determined as 0.538.

Regarding C22A A60U, the self-cleavage turned out to be 0.222.

C22A A60G: the self-cleavage was determined as 0.279.

Consider C22U U62C, for which the self-cleavage amounted to 0.171.

As for C22G C29A, the self-cleavage amounted to 0.258.

Take C22U A23C: the self-cleavage stood at 0.276.

As to C22U C32G, the self-cleavage turned out to be 0.133.

In the case of C22A G30A, the self-cleavage came to 0.167.

In the case of C22G U69A, the self-cleavage is 0.242.

In the case of C22G U69G, the self-cleavage was found to be 0.349.

Regarding U21C C57G, the self-cleavage is 0.384.

For C22A G37A, the self-cleavage is 0.212.

On to C22U U49A, for which the self-cleavage came to 0.297.

As to C22U C39U, the self-cleavage worked out at 0.179.

As to U21G U38C, the self-cleavage was 0.932.

Take A23C C32U: the self-cleavage amounted to 0.85.

For the variant A23C C27G, the self-cleavage came out at 0.228.

Take U21A G50U: the self-cleavage amounted to 0.971.

On to U21C G37A, for which the self-cleavage was found to be 0.261.

On to U21C G37U, for which the self-cleavage is 0.264.

Consider U21A G31C, for which the self-cleavage amounted to 0.221.

On to C22A G25C, for which the self-cleavage amounted to 0.255.

For C22A A52C, the self-cleavage was 0.173.

For the variant U21A C39A, the self-cleavage worked out at 0.911.

For C22A C39A, the self-cleavage came to 0.161.

For the variant C22A C39G, the self-cleavage turned out to be 0.223.

Regarding C22A C57A, the self-cleavage stood at 0.174.

Take U20C U69G: the self-cleavage is 0.394.

U21G G28C: the self-cleavage came to 0.162.

U21G G28A: the self-cleavage worked out at 0.245.

Take U21C C24A: the self-cleavage came to 0.376.

Consider A23C C29G, for which the self-cleavage stood at 0.485.

Take U20G U21C: the self-cleavage amounted to 0.166.

Take C22G G48C: the self-cleavage was determined as 0.212.

Take C22U G30A: the self-cleavage amounted to 0.164.

For C22U G30U, the self-cleavage came out at 0.221.

On to U21A U43C, for which the self-cleavage amounted to 0.909.

Regarding C22G U61A, the self-cleavage was 0.181.

As for U20G U36G, the self-cleavage came to 0.16.

Consider C22A G65C, for which the self-cleavage turned out to be 0.147.

Consider U21G G50C, for which the self-cleavage worked out at 0.616.

As to U21G G50A, the self-cleavage was 0.488.

With A23C G30U, the self-cleavage was 0.317.

Turning to C22U A51U, the self-cleavage came to 0.295.

With U21G C24G, the self-cleavage was 0.0852.

For U20G G50U, the self-cleavage amounted to 0.239.

Turning to U20G U43G, the self-cleavage was found to be 0.153.

Consider C22G C34U, for which the self-cleavage stood at 0.203.

Consider U20G G30U, for which the self-cleavage worked out at 0.191.

As for U20G G30C, the self-cleavage amounted to 0.212.

Consider U20G G31U, for which the self-cleavage was found to be 0.128.

For the variant U20G U38G, the self-cleavage was found to be 0.123.

For U21C C22U, the self-cleavage is 0.268.

Consider U21C C22G, for which the self-cleavage came to 0.0423.

For C22G U64G, the self-cleavage came out at 0.157.

As for U20C U44G, the self-cleavage was found to be 0.149.

As for U20C U44C, the self-cleavage came to 0.123.

Take C22A U53C: the self-cleavage was determined as 0.239.

Take U20C U67C: the self-cleavage came to 0.131.

As to A23C C63U, the self-cleavage amounted to 0.969.

As for C22A C63U, the self-cleavage came to 0.194.

Turning to A23C G41C, the self-cleavage came to 0.725.

Regarding A23C G41A, the self-cleavage was 0.809.

Take C22G C24U: the self-cleavage worked out at 0.182.

C22G C24G: the self-cleavage was 0.0697.

Regarding C22U G37U, the self-cleavage is 0.181.

For the variant C22A U62A, the self-cleavage was determined as 0.148.

For C22A U62C, the self-cleavage came to 0.17.

Consider U21C U44G, for which the self-cleavage was found to be 0.859.

Regarding U21C U44A, the self-cleavage was 0.911.

As to U21C U44C, the self-cleavage was found to be 0.824.

Regarding C22U U26G, the self-cleavage is 0.207.

Take C22U U26C: the self-cleavage is 0.279.

In the case of C22A U26A, the self-cleavage is 0.117.

On to A23C C33A, for which the self-cleavage came out at 0.746.

Consider U21G G47A, for which the self-cleavage stood at 0.715.

As to U21G G47C, the self-cleavage stood at 0.818.

Take U21G G47U: the self-cleavage was found to be 0.638.

With U21G U36G, the self-cleavage turned out to be 0.232.

On to U21G U36C, for which the self-cleavage was determined as 0.134.

On to C22U C57U, for which the self-cleavage was found to be 0.192.

As to C22U C57G, the self-cleavage came out at 0.144.

As to C22G C33G, the self-cleavage amounted to 0.216.

In the case of C22U C35G, the self-cleavage is 0.165.

For the variant U21C U43C, the self-cleavage was 0.875.

In the case of C22A U67C, the self-cleavage was 0.21.

In the case of C22G G37A, the self-cleavage was found to be 0.174.

Turning to C22G G37C, the self-cleavage turned out to be 0.956.

For A23C A40U, the self-cleavage came out at 0.79.

As to A23C A40C, the self-cleavage was found to be 0.544.

On to U20G U67C, for which the self-cleavage is 0.237.

Consider U20G U67A, for which the self-cleavage was determined as 0.223.

As to C22A G58C, the self-cleavage stood at 0.184.

Take C22A C33G: the self-cleavage was determined as 0.168.

In the case of U21A C27G, the self-cleavage was 0.222.

On to U21A C32A, for which the self-cleavage stood at 0.808.

Take U21A C32U: the self-cleavage is 0.993.

As to U20C U55G, the self-cleavage worked out at 0.203.

Take U20C U55C: the self-cleavage worked out at 0.139.

As to U21G G31C, the self-cleavage came out at 0.181.

On to C22A C27A, for which the self-cleavage is 0.158.

As to C22A C27G, the self-cleavage was 0.168.

C22A C27U: the self-cleavage is 0.144.

U20G C66A: the self-cleavage turned out to be 0.23.

Turning to U20G C66G, the self-cleavage was 0.15.

Turning to A23C C54A, the self-cleavage was 0.849.

C22G G58A: the self-cleavage came to 0.103.

Regarding U21C G68U, the self-cleavage is 1.

With U21C G68C, the self-cleavage came out at 0.899.

Take C22U C24A: the self-cleavage worked out at 0.179.

For C22G U26C, the self-cleavage came to 0.209.

Turning to C22G U26A, the self-cleavage came to 0.144.

Take U21C U53G: the self-cleavage stood at 0.724.

As to U21C C35A, the self-cleavage was determined as 0.229.

Consider C22A G47C, for which the self-cleavage came out at 0.157.

With A23C G28U, the self-cleavage came to 0.2.

In the case of C22U U61A, the self-cleavage came to 0.18.

As to A23C G47C, the self-cleavage came to 0.961.

As to A23C G47A, the self-cleavage amounted to 0.924.

With A23C A60U, the self-cleavage was 0.516.

Turning to U21C U55A, the self-cleavage was 0.843.

With U21C U55G, the self-cleavage was determined as 0.723.

As for U20G C63A, the self-cleavage turned out to be 0.157.

Take U20G U26A: the self-cleavage turned out to be 0.163.

Turning to U20G U26G, the self-cleavage was 0.123.

Turning to U21A G68A, the self-cleavage came out at 1.02.

U21C C66A: the self-cleavage was 0.611.

In the case of U21C G31C, the self-cleavage worked out at 0.16.

In the case of U21C G31A, the self-cleavage turned out to be 0.569.

As for C22A U43C, the self-cleavage was 0.167.

For C22G G31C, the self-cleavage worked out at 0.0776.

For C22G G31A, the self-cleavage amounted to 0.137.

On to C22G C45U, for which the self-cleavage came to 0.158.

Consider U21G G68C, for which the self-cleavage was 0.783.

For U21G G68U, the self-cleavage turned out to be 0.701.

With U20C U53G, the self-cleavage was 0.167.

U20C U53A: the self-cleavage was 0.135.

The values above are taken from the RNAGym collection of RNA variant scans (doi:10.7554/elife.80360).
